Target: Skp1-FBW7 complex (UniProt Q969H0)
Assay: ITC; MicroCal VP-ITC, 30 °C, 50 mM phosphate buffer pH 7.4; cell: 15 μM Skp1-FBW7 complex (1400 μL); syringe: 300 μM FIR∆exon2, 25 injections of 10 μL

Chain of UniProt Q969H0 (Q969H0 whole entry, chain 1 of 2): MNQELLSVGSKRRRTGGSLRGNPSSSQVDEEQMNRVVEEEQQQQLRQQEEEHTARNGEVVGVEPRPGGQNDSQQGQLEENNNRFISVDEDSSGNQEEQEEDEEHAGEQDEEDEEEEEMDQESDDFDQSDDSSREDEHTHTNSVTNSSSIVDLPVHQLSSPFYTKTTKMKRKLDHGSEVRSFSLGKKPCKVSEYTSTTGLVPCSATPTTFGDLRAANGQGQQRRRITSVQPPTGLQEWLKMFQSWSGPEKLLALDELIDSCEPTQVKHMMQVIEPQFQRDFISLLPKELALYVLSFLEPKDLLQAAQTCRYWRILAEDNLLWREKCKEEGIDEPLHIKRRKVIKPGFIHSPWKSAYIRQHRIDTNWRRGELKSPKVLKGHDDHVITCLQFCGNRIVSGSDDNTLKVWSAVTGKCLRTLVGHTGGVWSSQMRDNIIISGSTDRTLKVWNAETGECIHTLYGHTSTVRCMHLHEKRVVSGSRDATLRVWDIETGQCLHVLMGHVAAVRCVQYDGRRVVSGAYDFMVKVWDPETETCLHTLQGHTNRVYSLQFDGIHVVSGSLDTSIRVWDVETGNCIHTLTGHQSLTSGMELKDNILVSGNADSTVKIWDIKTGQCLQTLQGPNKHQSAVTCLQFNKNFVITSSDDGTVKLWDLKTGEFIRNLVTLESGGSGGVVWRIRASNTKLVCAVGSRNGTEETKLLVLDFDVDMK
Chain of UniProt Q969H0 (P63208 whole entry, chain 2 of 2, further chain): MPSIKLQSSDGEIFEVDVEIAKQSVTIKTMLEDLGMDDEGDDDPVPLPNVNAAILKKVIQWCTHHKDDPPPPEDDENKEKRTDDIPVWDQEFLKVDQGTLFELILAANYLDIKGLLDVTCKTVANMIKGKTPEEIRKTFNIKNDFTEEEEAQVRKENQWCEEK

Ka: > 108 M⁻¹
Substance: FIR∆exon2 (recombinant, Nus-tag cleaved) (natural protein)
